From the DeepSol protein solubility set

test: soluble on expression in E. coli; label from the status in PepcDB or PDB records

Soluble on expression in E. coli, soluble:
MEKLVEWENCVSVIEAAILKHKYKQKVNKNIPSLLRVQAHIRKKMVAQ
MEKTLETVPLERKKREKEQFRKLFIGGLSFETTEESLRNYYEQWGKLTDCVVMRDPASKRSRGFGFVTFSSMAEVDAAMAARPHSIDGRVVEPKRAVAREESG
MELYELAQAAGGGIDPDVFKILVDLLKLNVAPLAVFQMLKSMCAGQRLASEPQDPAAVSLPTSSVPETRGRDKGSAALGGVLALAERSNHEGSSQRMPRQPSATRLPKGGGPGKSPTQGST
MENAGKATSLQSSRDLFHRLMSENSSGGWEKSWEAGATPWDLGKPTPVIAHLVETGSLPNGRALVPGCGTGYDVVAMASPDRHVVGLDISKTAVERSTKKFSTLPNAKYFSFLSEDFFTWEPAEKFDLIFDYTFFCAFEPGVRPLWAQRMEKLLKPGGELITLMFPIDERSGGPPYEVSVSEYEKVLIPLGFEAISIVDNELAVGPRKGMEKLGRWKKSSTFHSTL
MENSIEAYLADSREKVTLGTVVDCFKGKAVSSKVVPGDVGLINLSDMGTLGIQYHQLRTFQMDRRQLLRYLLEDGDVLIASKGTLKKVCVFHKQNRDVVASSNITVLRPQKLLRGYYIKFFLDSPIGQALLDVADHGKDVINLSTKELLDIPIPVIPLVKQDYLINHYLRGLTDYHRKLNRAEQEWEYIQNEIQKGLG
MEPNNLKEELVSVFEKACSSHKERLDFICSVRESDTFSNVDVPLAPIKTIIEIAKNEENQTEILKLAIENIKTLSTVGSGQYIASHFSTHNEVAIIFCISYFLYHFNFLHDENKKQLLKRAFEAVAEKIADYLNEN
MEPRTIACPHKGCTKMFRDNSAMRKHLHTHGPRVHVCAECGKAFVESSKLKRHQLVHTGEKPFQCTFEGCGKRFSLDFNLRTHVRIHTGDRPYVCPFDGCNKKFAQSTNLKSHILTHAKAKNNQ

Soluble on expression in E. coli, not soluble:
MEKVMKCHRVEELLQLLEPEWHKDSELNLIQFLLKLAQEAGYQGALEDLTDDVLIYHLKMRNSAKDAVIPGLKKDYEDDFKTAILRARGIIK
MELIRNLDDANMGEVYWRLYRRYISLFIENEADDAYAWRCARALDELDDAVIERLCAASLRYRAARLERLGESAEEVAPARGVLERIEPGELIVPDPEQGDEAVIHLSLNCEWDREHGMEWIVRGGEVLYVGPFHGEDPWRDFTVKEPWNYA
MELLVKMGWDDWFAAHAGASSDAGRPGRVVAEQRGEYRVRTADGEVAAILTGRAMRETAGDRLERPVVGDWVIVEPVAGDSTVLVRAVLPRRTILARRESGRGAEVQPVAANVDIVFIVAGLDGALNLRRLERFLAAARESGAEPVVLLTKSDLAGDPAAPAEEAATVAPGIRVMTVSSLDGAGVDEVGALLAPGVTACFIGPSGVGKSSLVNLLAGDPVMAIGAVRERDAKGRHTTTHRQLILLPGGGIVIDTPGMREFGLWQVDEGIDAAFPEIAELAAGCRFHDCSHRHEPGCAVRTALAEGGLDPGRYGSYLKLRLEEETMATLADAEGRRERKKGERRMAKGLRAVLRKKGKK
MELQQRTLTIGLGNDIAVQTEGVGFIRGQLVADHAEINSVFKVVVKAALIVVKTLFADGYPHAIFQRFLMPDNRNRQHRADKAVGLVGIADDAEIRIAFCLISNAFFFTELIIGIGCGKADCGHFFVVFAAGSASVHKVSDFQNEFAVKPFAGKQHPHQYIGNHAGINRPPIISPQPCQQSGKRPVDYKKYAPNLRYPAGIAHGFFRQVGLLQPRKFFNHRLPGKQAAAEHRQHHQIDEDGIPIHRIMPPEHQYCGKKQCNKQSRITLLGQFGSQGAQQPQPAHRRRQPNKPARLPAVYSGLTKTSTALPRLAVLSAASSPCPDFC
MELSPVFARRLYLALLVESLERPNVPKLIEKTGWPRRTIQDVIKAMPGIGIELNFVQDGRRHNDGYYQLSDWGPFDSQWVTERKKDIAASLGFCA
MELSSEHKALFSLLRAGLWEREPDDLSPFPLTDAQWWNVYRMAVRQTVTGIVCRGLHHLPEALLPGDALMIRWVAETDRIERKNRRMDAVVCLLAQRMGRNGLHPVLLKGQGVAAFYEHPLTRECGDIDLCFLSEEEEREAAELMRRVGCRTEKQPDGSNCYSWQGVEVEHHTRLFDLHNPLLKVYLSALVREHGFTEFRPGGRDGLPEGNQSGEFPATISVPSPLPNLLLLNAHLLKHLLGHGVGLRQFCDMARAYHTLCGSYSPEGLEAVYRRTGLLRWSAQLHTFLTEYLGLHRAELPYADTDACSSPELLRIVLEGGNFGQYGGTKGKASQARWERKLRTFLSFWKHRGFSSAYARKEAFWISVRLIIGNLR
MELTKIRVKTIGYYHRDSEMKATPGRLPKNLNLACLTPMQNKEKFPNMNIEVLDSGKGELMMESLLDYISQTSCLQDEQPGFVTNKQLLVALTRTGSLAIHLFRWNGTTYLLKFNEDESVNQNFGAAFEHHCTKTDDPINENEPVRKAVMIAEIPRGKGVHSVLYSGQIDAVDNEVNRMHYELKVLSGGLTEHFWKTKSCMFYWQAVFGKADVLIIGSRTGKCPNDPKTTWPKEWPPFSVYQVETLEQNQIPESAAEECLKKVLMDPAPEWKPLEGEESVCYFLDLVEEYVKNNGDCYVFTRSDENPDWIVKEDEESVAEFRDVVRHYLAS
MEMAAAVRKCATFIEEKIGKHIDVTTMAYNRLMNHIRHMVSRAATGEKLKVDLNQFIEKNYPESFALAGDICKELGKDLNHEFLDNETGYLAIHIEQIKCDEMVSE
MENAFKNKALYHQLVDLLQERIETCMIPHDKLPSERELTAQYGVSRTTVRLALQELENRGSIYRRHGKGTFVSDIKKEAADLAGAYSFTEQMKGLGRKPHTRILSFEKLEADKFICQHLNLSLGEAVFKLSRLRIADNEPLMVEDTYLPVKFFLSLTDQLLRSKPLYDLFSEDFKQTVRLADEELYASIASKEDAKLLMIPEGAPVLHLARQTYNMKNEIIEFTLSVARADQFHYQIRHIRNS
MENEMKEKAVIFTGNSISHEDAKKILLANYQPPVRRFQLEKFIQQGYKVMGIIDGIFFDRAAVGHREIISALNAGVRVVGGASMGALRASELDTHGMIGVGKVYEWYRDGVIESDDEVAISTNPETFEPISVPLVNIRETLKAALGAGILSEKEYEDILELAISTYYPDRSYLGLTKEGAKKGLISEEKRKLLLDFCINSEVDVKKRDAVLVIETVKRLVEETEV
MENIFLKRLEFKAFEEDSVFSKIEGLNKFNSLNFKKPITFFSGENGTGKSTLLEAIAVNWGFNPEGGSINFNFSTKDTHLDLHNYLTVGKSVKRATDGFFLRAESFYNVATYAENIDLDFSEYGDKSLHHQSHGESFLNLVNHRFRGNGLYLLDEPEAALSPQRQLALMISIKKLIDEGSQFIIVSHSPILLAMPDSQIISFDKDSPLEITYEESMPYEITSLFLNNKNRILSHLFAE
MENKTVNQVIHYVYEGGGEAATDHNATVVFSQTITTDKVTGEKTYSDWTADNGDSFASVTSPVIDGYTADQLKVSEMTGITVDTEDISVTVTYTRNQGTIDVTYIDETTGKILEHHHHHH
MENLQIGVVGVGVMGKSLALNFESKGYSVALYDISKEKVDETIEENRGKNLVGTHIVEEFVNSLESPRKILLMVNAGEITDKAIDSLVPHLDKGDILIDGGNTYFVDTIRRNKRLAEEGINFIGAGVSGGEEGALKGPSIMPGGQKDAYEKVKDMLENISAKVNNEPCCSYIGPNGAGHYVKMVHNGIEYGDMQLICEAYFFLKQTLDLTAEEFHEIFAEWNKGELNSYLIEITADIFKKKDEETGKPLVDVILDTAGQKGTGKWTSQSALDLGISLPIITESVFARCISALKEERVNASKVLSGPKDKTAIGVEKAELIEAVRQALYMSKICSYAQGFTQLKAASEEYNWNLDFGSISMLWRGGCIIRAAFLQNIKEAYETNTDLPNLLLDPYFKEIVESYQGGLRQIISMAVQQGIPIPAFSAAISYYDSYRTAKLPANLLQAQRDYFGAHTYKRVDKEGTFHTKWI
MENQAALCVLLSDRANTHAHIFVHPHFLSFTLTKSCFCCGNLIYWFVTLYLNFRSRKKSEKMRSRSGSGVRLDRILFMVEQTICSHQNPITALFANQKDFPGHAWVRDNVYIAQALWALYRAYMKCADFDEDLTKAKELGFTCVKMMQSILECLMRQAEKVELFKKYQRPLDALHSKFAVGTKGTVCGDADWGHLQMDAISLYLLTLAQITASGLQVVRNFDEVAFIQNLVYYIETGYRTPDYGVWERGDKTNQGIRELNASSIGMVKAALQALNDVGDLFVDGSRGSVVHVLPDEIEQCSAVLSSMLPRESFSKETDAALLGIISYPAFCVEDPELVSQTRETITQRLLGKYGCRRFMRDGYKTVLEDASRLYYNKSELQQFEDIECEWPIFLCYLILDAMYSKDDDAVEAYWRQLESVLVLSDKGFRLVPELYVVLKEHVSAEKAHPGTQDRVPGGATPFLWAQSLYVIICLLYEGFLLPAELDPLSRRLSVYEKRPPCEVQVTVLAESLDVQRELRAHDIHVQCVDEIDPVFTILPASALGQLLAKIGESKKLNLSGRPLDRPIGLLSTSRLYQIGNKFVIFTPQFMDSRRSHLMYDIRILTDEWSSELQYIYASWNSVSISGRPLVVLVITQGMLSTEGLSHFSNIHLNRHMKSTVIGAIKKINTGYLSGARVVMKDLSDFFRTTAVSKMEFRDKSAEDTLRSVAAEKVQFTLLTEDATEAKNEKITTPRGPRTLRRGESVKDRSAYTAVHKASMRHRSIALDSNDADLMKLRLAYKSRPRDLQDMDSTYQSPPPTQTPLGLVKEHSSGELRQQLLKTTRRGAENETTHRDLTAEQMNEMKADDLLDLVNETTVLEEQISIVHCLWMKFGPDYDTELGCQHITVRMLMEEVHTKACEAREWALVRLTAGLLKKQLEEPQQSCYSSFVSPFELKSMIFSLLSGRLLEEYAEDGIHYSDTIRETRTGIGSFRRQIEERKSLRKSTRSVGGLEIPKEEDEDEEADEDDFQFGIWLRHRRIDGALNRVPNGFYAILWDTVHKMPHGVKINDTVLHWGLTQEMTRKEIKFALESEEALNRIAEPEYRELVVETLWLLGRLEKLVLLEQPNIPRDRPLDVDHILHVANQIFVDHNKHLETIVMECCASSNPNNTRCDGARNICKHFYDSAPAGEYGTSHYIIRALMQLYS
MENQTKCNISYRRIRIDKKKPPKTALKIKCLFTFSGFQEMLHVDKVDSLQTEKVNIRASGLVEWSCYTFILRLHYDRGTYASFCVARSDSLGCIDLSRDAPIRGTYTEVDQMGLFISIEPTQSIRPGHFFKTYDPKTYYYTLQLLDDSKKIIDEIHLKKHWKHPLVEQINVEQNGLYGTLFKPPGKGPFPAVIFIPGSNGMLESGYAAVLASEGFLTFTFAYFAYKKDLPKLIPDVDIEFFEKPIEYVQNSPYCSGKIGLVGQSFGGLTANYLSTKYHQVSAVVALNCSAAFCRDNAVMKENGKPMETQILDEGMSDFVNQVLRQKPAFRDLYSNLTPTTSIPWARAPKNTAYRIVQCYDDMLVDAVPSIINICGNLRKTGHHVESELVPGGHFLYFPYFPHHGIIYNAQINMLWGFGGECYQHSKSQETTWKKNVEFFKKHLGDVKRIPEWKRESTVTLPVSTKSSKSLQCKL
MENRGILFDKDGTCIRFDTLWQAGLQACFETLSMLAPHHSAEIKKILAIQEQRFLQKHLLDEVLYQELYQELAQFEELVEQGISSRWLEQFFYDYLRKNLKKIEPIGDLKQLFLELKRKNYKIGLATSDTLPATMLIMEYLGLTEMFDFIATGDRYLPKPDADMLQAFCQSCQLKATEVIMVGDSLVDVFMGTCHGKAGIGVLTGNCQSTDFEKFEVAYFRDIHEIPYQELWENTKKKKIYYF
MEQQIQMDEQENDESQGNDDQQNMSMSSSELHTMQDDHPGILLKTNTRMSITVKKLHVCGEWKWLQGGEDTCGICRMEFESACNMCKFPGDDCPLVLGICRHAFHRHCIDKWIAAPTNQPRAQCPLCRQDWTIVE
